Laboratory results taken from the DeepSol protein solubility set.

experiment: soluble on expression in E. coli; label from the status in PepcDB or PDB records

Sequence | soluble on expression in E. coli
MGSDKIHHHHHHMRNITVPSNYFHTRERLGALGGIVQHHTALYRSVAVYEPTVVIVRRGCKKLRWAGRELRIAAGEAVGLAGGQTLDVINIPDSDGLYQAQWIAFEQETVERFAAQYGTAQAVCDAVKLPHPGRMGAAFDYAAAVLADEEVPHNAAEAALCGVLAWLQHDGIGFAVYGGVNLMRQIRKLITADMAADWSSAMLAQRLNCSEAALRRRLARQDTNFRTLLTDVRMMRALTLLQVTQWSVAQIAGAVGYDCPSRFSARFKELFGCVPSVVRSEAEPAAYRRTGQVSVGVRP | not soluble
MLKSILRGALVATKPGPARRQFSFTALLRSETQPKEIINLERVQVRKMKKRRPVASSVVPKSLREPSVVAMALSESLNLNEVIMDAQLNGMYNITAIDEDADDSLHFVKKLEYTINPGELSEIFVFRDGVVVFWNVDSSQRSHILRELERYADAPYDSMIVMDEQDRMFYKFSEQSTGSTIRQDRFYLSGKHLDAFHGSNEAILERFALSQGFAASVKIGVWESLLNNLAEPLSNTTKSLTLGKIPWSRKQALMRSGEFAALRHSINLDCTLLNKDFYWERPELEKYYTMTGRHFSLDRRIGLLNKRLDYCEELVKMVDNTIALRHASHLEWMIIVLIVIEVIFDVFHFADKTPKSVMIVPDSSKAQQLRNEGN | not soluble
MMSESNKQQAVNKLTEIVANFTAMISTRMPDDVVDKLKQLKDAETSSMGKIIYHTMFDNMQKAIDLNRPACQDTGEIMFFVKVGSRFPLLGELQSILKQAVEEATIKAPLRHNAVEIFDEVNTGKNTGSGVPWVTWDIVPDGDDAEIEVYMAGGGCTLPGRSKVLMPSEGYEGVVKFVFENISTLAVNACPPVLVGVGIATSVETAAVLSRKAILRPIGSRHPNPKAAELELRLEEGLNRLGIGPQGLTGNSSVMGVHIESAARHPSTIGVAVSTGCWAHRRGTLLVHADLTFENLSHTRSAL | not soluble
MGSDKIHHHHHHMSSPSLGTEQVFPQQALLDPVLLRAFVAVADSGSFTRAAAATHLTQSTVSQQLKRLEQQLGCELLSRKGRYAMPTADGERLLGYARQILALMAEAGMTPAQPPLLRLAVAEDFAGTALMPILKKLITRFPSVKLEVQSGLSKPLYQAFQEGVVELALIKQRQGEHPAKACWPEALSWLAAADWQAVKAGEPVPLIAFPAGGLYRNEMAQLLDEAGIPWRLVYSSNSLEGVLCAVAAGMGVSLLPSRFIRAREHREITALPRATAMELALHLASSPGAELQWLADEIGAYCDRLSSGGSSVSCPNTSA | not soluble
MAELISKEGNKVEFKVSVPAAEVNRAYDQVWAGLARDVRVPGFRPGKAPRKVIENRVGKGYVESQVRDRLLETHYSQGLRELGLNLVDATVDPQDVQSGQAFEFTVKGETYP | soluble
VSSQKTSSLPKYTPKVNSSINNYIRKKNMKAPRIEEDYTSYFPKYGYRNGVGRPEGIVVHDTANDNSTIDGEIAFMKRNYTNAFVHAFVDGNRIIETAPTDYLSWGAGPYGNQRFINVEIVHTHDYDSFARSMNNYADYAATQLQYYNLKPDSAENDGRGTVWTHAAISNFLGGTDHADPHQYLRSHNYSYAELYDLIYEKYLIKTKQVAPWG | soluble
MGQCRSANAEDAQEFSDVERAIETLIKNFHQYSVEGGKETLTPSELRDLVTQQLPHLMPSNCGLEEKIANLGSCNDSKLEFRSFWELIGEAAKSVKLERPVRGH | soluble
MQSCLRLAASLLSAALLCLPAPGAAQTASPAKKELLKFNWGAPTADYYALYVAKDQKLFEEVGLEPNFYFFPSGAPLLAGLKSKSLDVITTGLATVFALGQNVPLKLIYWELDHAAAEGLVVDPAAGIKSYKDIAKAKAIGAPSGTCAQVSLVLMAKELNLKYSNLNIINIAPPLYGNAFKSKSIQAAVAWSPYSSILNADQLPVVNWASDYTPDQGVCPGLTGVRTEFMQQHPDIGLKLVQVQAKAMDMIRKDPELGIGVLMKYLSVSREVAKHIYDREFSRIPTYAQQIDPASPYSLAAKDAGLARKLLIASQALAEVGTIPAPLTPQAIAEAIDPSAIQRYMKGERK | not soluble
MKDNERRILLGRVVGGFGLRGEIKIESWTEPRDAIFRYQPWLLRSPTGTESMLNGARGYETGKRLIATFPGINDRNGVEAICGTEIYVPRSALPPPHPDEYYWVDLEGLQVHTLEGVVLGSVSHLFSNGANDVIVIHGERERLIPFVQPDYVKSVDFEAERIVVDWDPEFLEHHHHHH | soluble
MKRQLFTVLVCMTMFAVASCGEKKGKDKFEERIEKAKESVEDVVDDAKDQIEDKADEVGETLDKAKSKIEKAKKKLDEANRD | not soluble
MPKTQSAAGYKAGVKDYKLTYYTPDYTPKDTDLLAAFRFSPQPGVPADEAGAAIAAESSTGTWTTVWTDLLTDMDRYKGKCYHIEPVQGEENSYFAFIAYPLDLFEEGSVTNILTSIVGNVFGFKAIRSLRLEDIRFPVALVKTFQGPPHGIQVERDLLNKYGRPMLGCTIKPKLGLSAKNYGRAVYECLRGGLDFTKDDENINSQPFQRWRDRFLFVADAIHKSQAETGEIKGHYLNVTAPTCEEMMKRAEFAKELGMPIIMHDFLTAGFTANTTLAKWCRDNGVLLHIHRAMHAVIDRQRNHGIHFRVLAKCLRLSGGDHLHSGTVVGKLEGDKASTLGFVDLMREDHIEADRSRGVFFTQDWASMPGVLPVASGGIHVWHMPALVEIFGDDSVLQFGGGTLGHPWGNAPGATANRVALEACVQARNEGRDLYREGGDILREAGKWSPELAAALDLWKEIKFEFETMDKL | soluble
QLPCNLSPLNWVGMQHIDLPTVIDTANQTVNTKVDVYVNLPKSSVKGIHMSRLYHLINHLSVLNTMSIKSVLKQMIDSHQDCGTTAAKIVFKFDLLLKRDAIVSTALSGWKSYPVIIEASIINELFNIEYKLDISYSSTCPCSAALSRQIIKNGFKADFSSQNLIPSADIEAWLEQYATLATPHSQRSIATVVVQPFDYAHDINFVDLIDSIENTLKTPTQTAVKRADEQAFAKLNGENLMFVEDAARRLKMLLDQKYKFWSAQVVHQESLHPHDAIAVAISS | not soluble
EVVVIGYGTAKRKDITGSVATVNAEALTVVPVASATEALTGKMAGVQITTTEGSPDAEMKIRVRGGGSITGDNTPLFIVDGFPVESISDIPASDIEDMTVLKDASSTAIYGSRGANGVILVTTKSGK | not soluble
MSLSALLNYKLEGSGETVVLIHGLFGSLDNLGLLARDLKNDHQVLSLDLRNHGLSFHSDEHNYALMAQDVNQLLEHLNLTSVVVIGHSMGGKVAMKLADIAAEKVRQLVVLDMSPVAYSQRRHDNVFAGLEAVLVQKPTSRSEVMAILAQHIEQEGVRQFLGKSLMSEQNVMTWRFNVAALKAHYAEILGWDIIAKCRIPTLFIKGADSDYLTTQHQPMVQAQFSQAKAHVIANTGHWLHAEKPAEVIRAIRKFIDVPVEGHHHHHH | soluble
MGRKWNNIKEKKASKDANTSRIYAKFGREIYVAAKQGEPDPESNQALKVVLERAKTYSVPKNIIERAIEKAKGGAEENYDELRYEGFGPNGSMIIVDALTNNVNRTAPEVRAAFGKNGGNMGVSGSVAYMFDATAVIVVEGKTADEALEILMEADVDVRDILEEDDSAKSCYAEPDQFHAVQEAFKNAGVEEFTVAELQMLAQSEVTLPDDAKEQFEKLIDALEDLEDVQQVYHNVDLGELEHHHHHH | soluble
MSLTSKNQFYKPGMLVPVFSAAGLLKNGRYQFLLQQIETLSLLPTEQYAQLYEALVYRFVEFVQVLPIRLDEPLCSLMNEGLLRGVNSLNHYIQNHPEATPLERYALFSAGLLLEVAHAVVNQKIFITDEEGNFIKQWNPFSGPLIDDVETKHYKIMPLSSYYQRNIPSITPILVRQLLPDEGFLWLTSDMRVFSDWMQALRDDEGEGGGRFEHVLQLFKHKNIDGLFNTLPALPVNLQDSPATAHADAFLNWLKEALATNQIKVNTSDAGVHVIPEGVFLEKTGIFKQYIDLHVNVPVNLFTVYQQFGNLFGLTKLSGIDYRFEQLFSEYPDALKRKSKMGFAGLIGIRRASPTREGVLIADPNLIFTRGEIPSATSYLKLSSAQKSQNIPMTEGHHHHHH | soluble
MILAIFSLRLLLIPTIDEPESIVTQLENAIDPVTQVPDFSAITDVAEKKRAFFDFLRPIVQQQNAIIASEREFITDMLAIVENGNALSDSQSAQLNQIFDKYLYAARNVDAKSLNSLLKRVDIIPESMVLIQAANESGWGSSRFAREGFNFFGEWCFSNGCGIVPSSRGSGKTHEVKIFPSVDASVSSYMRNLNSNTAYNLFRSIRADLRAQEAELNADQLIYGLVNYSERQEAYIDELLDMLRHNAKYLVKADV | soluble
